Laboratory results as given in publication PMC3241732 (The Journal of Cell Biology, 2011).

T1: His6-Cdc12 (Saccharomyces cerevisiae, UniProt P32468 1-407)
T1 sequence: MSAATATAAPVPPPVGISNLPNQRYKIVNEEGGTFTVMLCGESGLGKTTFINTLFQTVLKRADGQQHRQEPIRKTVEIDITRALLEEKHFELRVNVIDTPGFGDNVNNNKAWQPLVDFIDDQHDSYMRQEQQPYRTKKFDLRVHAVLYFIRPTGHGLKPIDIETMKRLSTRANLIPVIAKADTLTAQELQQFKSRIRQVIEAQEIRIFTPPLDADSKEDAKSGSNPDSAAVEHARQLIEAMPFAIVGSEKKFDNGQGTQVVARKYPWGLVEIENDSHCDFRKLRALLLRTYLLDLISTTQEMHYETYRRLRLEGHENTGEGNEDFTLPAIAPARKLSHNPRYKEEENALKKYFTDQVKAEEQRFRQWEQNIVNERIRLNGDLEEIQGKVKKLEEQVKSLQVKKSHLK

B1: Shs1(Δ349–551) (domain or fragment)
chain: MSTASTPPINLFRRKKEHKRGITYTMLLCGPAGTGKTAFANNLLETKIFPHKYQYGKSNASISSNPEVKVIAPTKVVSFNSKNGIPSYVSEFDPMRANLEPGITITSTSLELGGNKDQGKPEMNEDDTVFFNLIMTHGIGENLDDSLCSEEVMSYLEQQFDIVLAEETRIKRNPRFEDTRVHVALYFIEPTGHGLREVDVELMKSISKYTNVLPIITRADSFTKEELTQFRKNIMFDVERYNVPIYKFEVDPEDDDLESMEENQALASLQPFAIITSDTRDSEGRYVREYPWGIISIDDDKISDLKVLKNVLFGSHLQEFKDTTQNLLYENYRSEKLSSVANAEEIGP
B2: Cdc11 (natural protein)
chain: MSGIIDASSALRKRKHLKRGITFTVMIVGQSGSGRSTFINTLCGQQVVDTSTTILLPTDTSTEIDLQLREETVELEDDEGVKIQLNIIDTPGFGDSLDNSPSFEIISDYIRHQYDEILLEESRVRRNPRFKDGRVHCCLYLINPTGHGLKEIDVEFIRQLGSLVNIIPVISKSDSLTRDELKLNKKLIMEDIDRWNLPIYNFPFDEDEISDEDYETNMYLRTLLPFAIIGSNEVYEMGGDVGTIRGRKYPWGILDVEDSSISDFVILRNALLISHLHDLKNYTHEILYERYRTEALSGESVAAESIRPNLTKLNGSSSSSTTTRRNTNPFKQSNNINNDVLNPASDMHGQSTGENNETYMTREEQIRLEEERLKAFEERVQQELLLKRQELLQREKELREIEARLEKEAKIKQEE
B3: Shs1 (natural protein)
chain: MSTASTPPINLFRRKKEHKRGITYTMLLCGPAGTGKTAFANNLLETKIFPHKYQYGKSNASISSNPEVKVIAPTKVVSFNSKNGIPSYVSEFDPMRANLEPGITITSTSLELGGNKDQGKPEMNEDDTVFFNLIMTHGIGENLDDSLCSEEVMSYLEQQFDIVLAEETRIKRNPRFEDTRVHVALYFIEPTGHGLREVDVELMKSISKYTNVLPIITRADSFTKEELTQFRKNIMFDVERYNVPIYKFEVDPEDDDLESMEENQALASLQPFAIITSDTRDSEGRYVREYPWGIISIDDDKISDLKVLKNVLFGSHLQEFKDTTQNLLYENYRSEKLSSVANAEEIGPNSTKRQSNAPSLSNFASLISTGQFNSSQTLANNLRADTPRNQVSGNFKENEYEDNGEHDSAENEQEMSPVRQLGREIKQENENLIRSIKTESSPKFLNSPDLPERTKLRNISETVPYVLRHERILARQQKLEELEAQSAKELQKRIQELERKAHELKLREKLINQNKLNGSSSSINSLQQSTRSQIKKNDTYTDLASIASGRD

Target: T1, His6-Cdc12
Assay: negative-stain EM, single-particle class averages

Binder	percent of particles that are octamers [%]	percent of particles that are heptamers [%]	percent of particles that are hexamers [%]
B1	72	–	–
B2	86	10	4
B3	47	15	38
